# What was measured:
# [1] = biological target: heterochromatin protein 1 gamma (HP1γ) (Homo sapiens (Human)) (UniProt Q13185); test: cell-based or functional assay
# [2] = tested on: silent GFP reporter in HeLa TI-C cell clones; test: GFP reactivation in TI-C silent cell clones (FACS); format: cell-based, human; details: TSA treatment, FACS after 24 hours, vs DMSO control
# Text: Cells. HeLa cell populations containing silent GFP genes, as described by Katz et al., 2007, J. Virol. 81:2592-2604, were utilized. TI-C cell clones were isolated by cell sorting as described by Katz et al., 2007, J. Virol. 81:2592-2604.
# Analysis of GFP expression. GFP expression was quantitated by FACScan as described previously (Greger et al., 2005, J. Virol. 79:4610-4618; Katz et al., 2007, J. Virol. 81:2592-2604; Poleshko et al., 2008, J. Virol. 82:2313-2323).
# Evidence for position-independent roles for HDAC1 and Daxx in retroviral reporter gene silencing. To determine if the integration sites of the retroviral DNA are determinants for the participation of specific host factors that control epigenetic silencing, a series of TI-C cell clones was examined. These clones were derived from a pool of cells in which the average GFP copy number was ca. 1 as measured by quantitative real-time PCR (Katz et al., 2007, J. Virol. 81:2592-2604; Poleshko et al., 2008, J. Virol. 82:2313-2323). […] As with the TI-C cell population, transfection with the HDAC1 siRNA pool phenocopied the TSA treatment (compare FIGS. 4A and B). Based on analyses of these clones, it was concluded that HDAC1 and, in most cases, Daxx are required for the maintenance of silencing at independent loci, but the integration site may modulate the extent of reactivation.
# UniProt Q13185, sequence (Q13185 whole entry): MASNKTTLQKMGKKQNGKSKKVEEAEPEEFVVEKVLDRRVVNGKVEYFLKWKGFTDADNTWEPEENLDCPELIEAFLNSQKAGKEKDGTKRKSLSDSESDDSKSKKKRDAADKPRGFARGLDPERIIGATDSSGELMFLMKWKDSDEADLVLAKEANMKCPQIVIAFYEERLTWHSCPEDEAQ
GFP-positive cells at 5 days postinfection (FACS) (% GFP-positive cells) [1],Molecule,GFP reactivation in TI-C cell clones [2]
24,dominant negative form of HP1 (dnHP1) (from UniProt P83916 104-185),
,"CC(/C=C/C(=O)NO)=C\[C@@H](C)C(=O)c1ccc(N(C)C)cc1 [TSA, trichostatin A]","induced GFP reactivation, but to various degrees"

# From US20110172107A1, “ASSAY FOR IDENTIFYING AGENTS THAT MODULATE EPIGENETIC SILENCING, AND AGENTS IDENTIFIED THEREBY” (FOX CHASE CANCER CENTER, priority 2008, published 2011)
